Data as given in patent US20150322163A1 (OREGON HEALTH AND SCIENCE UNIVERSITY, published 2015).

Columns and labels:
human factor XI = target: T1, human factor XI (human, UniProt P03951 19-625); experiment: Western blot of plasma
T1 construct: Disulfide-bonded homodimer of about 160 kDa; also called FXI; human FXI

baboon factor XI = baboon factor XI (baboon (Papio anubis)); experiment: cell-based or functional assay
Prekallikrein (PK) = Prekallikrein (PK) (UniProt P03952 20-638, limits assumed); experiment: Western blot
Prekallikrein (PK), sequence (P03952 20-638 limits assumed): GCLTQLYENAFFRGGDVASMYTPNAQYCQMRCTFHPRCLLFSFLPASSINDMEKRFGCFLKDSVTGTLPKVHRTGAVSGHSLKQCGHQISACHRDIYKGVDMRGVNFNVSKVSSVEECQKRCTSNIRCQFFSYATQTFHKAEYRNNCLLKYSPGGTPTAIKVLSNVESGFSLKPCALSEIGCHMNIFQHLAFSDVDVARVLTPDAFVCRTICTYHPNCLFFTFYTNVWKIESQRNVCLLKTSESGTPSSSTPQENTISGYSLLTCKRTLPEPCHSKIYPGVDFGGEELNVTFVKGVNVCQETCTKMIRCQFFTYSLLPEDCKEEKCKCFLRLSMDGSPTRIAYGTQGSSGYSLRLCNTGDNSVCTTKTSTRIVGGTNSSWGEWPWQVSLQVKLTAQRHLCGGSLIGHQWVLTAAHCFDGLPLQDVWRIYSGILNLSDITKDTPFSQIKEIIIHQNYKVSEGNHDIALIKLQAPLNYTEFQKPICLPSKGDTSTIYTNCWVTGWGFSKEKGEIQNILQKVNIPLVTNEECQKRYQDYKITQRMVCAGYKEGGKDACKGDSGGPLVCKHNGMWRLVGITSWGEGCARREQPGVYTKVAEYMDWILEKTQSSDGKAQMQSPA

T1 sequence (P03951 19-625 I95Y limits assumed): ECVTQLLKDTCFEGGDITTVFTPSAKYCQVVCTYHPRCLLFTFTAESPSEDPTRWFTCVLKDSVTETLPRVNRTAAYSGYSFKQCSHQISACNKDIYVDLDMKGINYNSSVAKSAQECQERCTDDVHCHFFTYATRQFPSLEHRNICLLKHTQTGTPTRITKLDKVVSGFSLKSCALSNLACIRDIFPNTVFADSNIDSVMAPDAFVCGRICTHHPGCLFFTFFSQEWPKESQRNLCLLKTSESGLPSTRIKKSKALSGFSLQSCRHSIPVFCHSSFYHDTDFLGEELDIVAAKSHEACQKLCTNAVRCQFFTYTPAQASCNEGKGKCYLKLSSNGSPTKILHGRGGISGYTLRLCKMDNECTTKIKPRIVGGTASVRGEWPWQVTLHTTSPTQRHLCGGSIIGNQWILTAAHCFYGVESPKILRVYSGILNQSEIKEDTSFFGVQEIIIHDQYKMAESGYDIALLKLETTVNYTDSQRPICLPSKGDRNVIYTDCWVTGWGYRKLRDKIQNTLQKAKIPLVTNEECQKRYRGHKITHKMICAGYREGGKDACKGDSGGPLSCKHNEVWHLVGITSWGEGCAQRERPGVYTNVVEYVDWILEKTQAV

B1: anti-factor XI monoclonal antibody 1A6 (aXIMab) (antibody, V domains shown)
VH: QVTLKESGPGILKPSQTLSLTCSFSGFSLSTSGMGVGWIRQPSGKGLEWLAHIWWDDDKYYNPSLKSQLTISKDTSRNQVFLKITSVDAADTATYYCARKRSSVVAHYYAMDYWGQGTSVTVSS
VL: DIVLTQSPASLAVSLGQRATISCKASQSVDYDGDSYLNWYQQKPGQPPKLLIYAASNLESGIPARFSGSGSGTDFTLNIHPVEEEDAATYYCQQSNGDPWTFGGGTKLEIK
notes: also called anti-FXI monoclonal antibody
Human factor XI
  binding result: binds
Baboon factor XI
  IC50 in a clotting assay using FXI deficient human plasma with serial dilutions of NBP as standards: 2.5 nM
Prekallikrein (PK)
  binding result: no binding
